Results: article PMC5228590

Target: vimentin (mouse (endogenous in MC-3T3 and in primary calvarial osteoblasts of C57/B6J mice)) (UniProt P20152)
Experiment: co-IP

Chain of vimentin (mouse (endogenous in MC-3T3 and in primary calvarial osteoblasts of C57/B6J mice)) (P20152 whole entry): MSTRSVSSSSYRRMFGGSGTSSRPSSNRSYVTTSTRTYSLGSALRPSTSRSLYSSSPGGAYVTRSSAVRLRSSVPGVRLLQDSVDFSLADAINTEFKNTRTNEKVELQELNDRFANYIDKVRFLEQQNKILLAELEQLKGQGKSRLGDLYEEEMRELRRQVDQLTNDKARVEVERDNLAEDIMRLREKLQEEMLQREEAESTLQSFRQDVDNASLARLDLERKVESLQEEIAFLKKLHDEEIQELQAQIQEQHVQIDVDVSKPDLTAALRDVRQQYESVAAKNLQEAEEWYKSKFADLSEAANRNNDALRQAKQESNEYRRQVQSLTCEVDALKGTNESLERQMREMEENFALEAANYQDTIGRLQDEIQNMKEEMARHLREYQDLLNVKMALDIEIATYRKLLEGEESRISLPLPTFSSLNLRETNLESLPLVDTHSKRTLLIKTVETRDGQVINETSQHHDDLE

Substance: receptor protein tyrosine phosphatase β, B9EKR1 25-2312
- fold increase of the association with IGF-I: 6.7 fold
- percent reduction of the association with the PKCζ pseudosubstrate inhibitor: 62%
